From US20250228964A1 (CODIAK BIOSCIENCES, published 2025)

Target: the molecule itself
Test: SEC-MALS (eluted at 198 kDa against the predicted 98 kDa) and analytical SEC with 0, 1M or 2M GuHCl
Protocol: To confirm proper expression of the PTGFRN ECD, the purified protein was analyzed by size exclusion chromatography/multiangle light scattering (SEC-MALS), using BSA and an anti-VLA4 antibody as standards for comparison. Recombinant PTGFRN ECD was eluted at ˜2x its predicted molecular weight (198 kDa as opposed to the predicted molecular weight, 98 kDa; FIG. 20A). To determine whether PTGFRN ECD forms a homodimer in solution, recombinant PTGFRN ECD was run over an analytical SEC column (Tosoh, 7.8×30cm, G3000SW xl) in PBS in the absence of guanidium chloride (GuHCl) or in the presence of 1M or 2M guanidinium chloride (GuHCl).

B1: recombinant PTGFRN extracellular domain (ECD), purified, Fc tag removed with thrombin (receptor)
chain: VPTATLVRVVGTELVIPCNVSDYDGPSEQNFDWSFSSLGSSFVELASTWEVGFPAQLYQERLQRGEILLRRTANDAVELHIKNVQPSDQGHYKCSTPSTDATVQGNYEDTVQVKVLADSLHVGPSARPPPSLSLREGEPFELRCTAASASPLHTHLALLWEVHRGPARRSVLALTHEGRFHPGLGYEQRYHSGDVRLDTVGSDAYRLSVSRALSADQGSYRCIVSEWIAEQGNWQEIQEKAVEVATVVIQPSVLRAAVPKNVSVAEGKELDLTCNITTDRADDVRPEVTWSFSRMPDSTLPGSRVLARLDRDSLVHSSPHVALSHVDARSYHLLVRDVSKENSGYYYCHVSLWAPGHNRSWHKVAEAVSSPAGVGVTWLEPDYQVYLNASKVPGFADDPTELACRVVDTKSGEANVRFTVSWYYRMNRRSDNVVTSELLAVMDGDWTLKYGERSKQRAQDGDFIFSKEHTDTFNFRIQRTTEEDRGNYYCVVSAWTKQRNNSWVKSKDVFSKPVNIFWALEDSVLVVKARQPKPFFAAGNTFEMTCKVSSKNIKSPRYSVLIMAEKPVGDLSSPNETKYIISLDQDSVVKLENWTDASRVDGVVLEKVQEDEFRYRMYQTQVSDAGLYRCMVTAWSPVRGSLWREAATSLSNPIEIDFQTSGPIFNASVHSDTPSVIRGDLIKLFCIITVEGAALDPDDMAFDVSWFAVHSFGLDKAPVLLSSLDRKGIVTTSRRDWKSDLSLERVSVLEFLLQVHGSEDQDFGNYYCSVTPWVKSPTGSWQKEAEIHSKPVFITVKMDVLNAFKYP
notes: Expressed in Expi293 as signal peptide-ECD-PAR1 cleavage site-Fc; the Fc was removed with thrombin, so a remnant of the PAR1 site may remain; also called PTGFRN ECD; purified PTGFRN ECD
B1: binds.
